In patent US20250320278A1 (LA JOLLA INSTITUTE FOR IMMUNOLOGY, published 2025) one finds binding result and Kd data, which are given here for 8 molecules.

Test [1] deals with T1, SARS-CoV-2 N protein oligomerization domain (SARS-CoV-2, UniProt P0DTC9 247-364).
T1 construct: also called N olig. domain; OD
The experiment in a line: Octet, KD (nM) heat map.

The target in test [2] is T2, SARS-CoV-2 N protein, full-length (SARS-CoV-2, UniProt P0DTC9 1-419).
T2 construct: mature; also called SARS-CoV-2 nucleoprotein
Put plainly: Octet, KD (nM) heat map.

In test [3] the target is SARS-CoV-2 N protein RNA-binding domain (SARS-CoV-2, UniProt P0DTC9 44-180). The experiment in a line: Octet, KD (nM) heat map.
The target of test [4] is T2, SARS-CoV-2 N protein, full-length. The experiment in a line: Octet (BLI) kinetics.
Test [5] addresses T1, SARS-CoV-2 N protein oligomerization …. The experiment in a line: Octet (BLI) kinetics.

Substitutions are numbered along the chain they refer to.

B1: NP3-C11 (antibody, V domains shown)
VH: EVQLVESGGGLVRPGGSLKLSCAASGFTFSDYYMYWVRQTPEKRLEWVATISDGGGYNYYPDSVKGRFTVSRDNAKNNLYLQMSSLKSEDTAMYYCVRDKYDGWGSDFDVWGAGTTVTVSS
VL: DIVMTQSPSLMSTSLGERVTMTCTANSSVSSNYMHWYQQKPGSSPKLWIYSTSNLASGVPARFSGSGSGTSYSLTISNMEAEDAATYYCHQFHRSPRTFGGGTKLEIK
Turning to B1, the binding result is “no binding” in test [1] and “binds” in test [2].

B2: NP3-A7 (antibody, V domains shown)
VH: QIQLVQSGAELVKPGASVKLSCTASGFNIKDTYIHWVRQRPEQGLEWIGRIDPANGDTKYDPKFQDKATLIADTSSNTAYLQLGSLTSEDTAVYYCARYRIYYFDYWGQGTTLTVSS
VL: DIQMTQSPASVPVTPGESVSISCRSSKSLLHSNGNTYVYWFLQRPGQSPRLLIYRMSNLASGVPDRFSGSGSGTAITLRISRVEAEDVGVYSCMQHLEYPLTFGAGTKLEIK
Turning to B2, the binding result in test [1] and in test [3] was “no binding” in each case. This molecule displayed a Kd in test [4] of 2.75 nM.

B3: NP3-G9 (antibody, V domains shown)
VH: EVQLQQSGAELVRPGSSVKISCKASGYAFSNYWMNWVRQRPGQGLEWIGQIYPGNDDTYYNGKFKGKVTLTADKSSTTAYIQLISLTSEDSAVYFCARRPLFYAMDYWGQGTSVTVSS
VL: DIQMTQSPSSLAVSLGQRASISCKASQSVDYDGESYMNWYQQKPGQPPKVLIYAASNLESGIPARFSGSGAGTDFTLSIHPVEEEDAATYYCQQSYEDPWTFGGGTKLELK
For the molecule B3, the binding result in test [3] is recorded as “no binding”.

B4: NP3-B12 (antibody, V domains shown)
VH: EVQLQQSGAELMKPGASVKISCKATGYTFSSYWIEWVKQRPGHGLEWIGEFFPGSGNTNYNEKFKGKATFTADTSSNTAYMQLSSLTSEDSAVYYCARRGLYDGYYVRYFDVWGAGTTVTVSS
VL: DIVLTQSPASLAVSLGQRATISCKASQSVDYDGYSYMNWYQQKPGQPPKLLIYAASNLESGIPARFSGSGSGTDFTLNIHPVEEEDAATYYCQQSNADPFTFGGGTKLELK
Consider B4, for which, in test [3], the binding result is “no binding”. Moreover, the Kd in test [5] stood at 0.78 nM; in test [4], 1 nM.

B5: NP3-G12 (antibody, V domains shown)
VH: EAQLQQSGAEPMKPGASVKISCKTTGYTFTSDWIEWVQQRPGHGLEWIGEILPGSGNTNYNENFKGKATLTADTSSNTAYMHLSSLTSEDSAVYYCARRLFLRRYFDVWGAGTTVTVSS
VL: B4 VL with L4M, Y34D, S67G, S69G, A97E
Take B5: in test [3], the binding result is “no binding”.

B6: NP3-C9 (antibody, V domains shown)
VH: QIQLVQSGPELKKPGETVKISCKASGYTFTDYSIHWVKQAPGKDLKWVGWINTETGEPTYADDFEGRFAFSLETSASTAFLQINNLKNEDTATYFCSRGAATGFWGQGTTLTVSS
VL: B4 VL with Y34D, A54V, E84D, S95T, A97E, F100L, G104A
On to B6, for which the binding result in test [1] and in test [3] was “no binding” throughout. The molecule further came in with a Kd in test [4] of 0.75 nM.

B7: NP3-E6 (antibody, V domains shown)
VH: B5 VH with A2V, P11L, K13R, T24A, T30S, D32Y, Q38K, G56D, N63K, Y95S
VL: B4 VL with V13L, Y34D, Y53S, S67G, A97E, L110I
With B7, the binding result in test [3] is “no binding”. This molecule also gave a Kd in test [4] of 0.48 nM.

B8: NP3-G8 (antibody, V domains shown)
VH: QVQLQQSGPELKKPGETVKISCKASGYTFTDYSMHWVKQAPGKGLKWLGWKNTESGEETFADDFKGRFDFSLETSASTVYLQIKNLKNEDTAAYFCARSGDIYAMDYWGQGTTVTVSS
VL: B4 VL with D1E, I2N, Y34G, N57T, R65G, A97E, F100W, L110I
Regarding B8, in test [3], the binding result is “no binding”. In addition, the Kd amounted to 1.05 nM in test [5] and 2.54 nM in test [4].
